Test results as given in PMC9967152 (International Journal of Molecular Sciences, 2023).
Where a SMILES comes first, the peptide text is derived from it. [ ]: non-standard residue; d: D form. The star is where a group is joined. Daunorubicin(13-NOCH2CO) = COc1cccc2c1C(=O)c1c(O)c3c(c(O)c1C2=O)C[C@@](O)(C(C)=NOCC(=O)*)C[C@@H]3O[C@H]1C[C@H](N)[C@H](O)[C@H](C)O1; Sta = CC(C)C[C@H](N)[C@@H](O)CC(=O)O; Nle = CCCC[C@H](N)C(=O)O

Columns and labels:
[1] = Stability in incomplete (serum-free) DMEM; format: in vitro ADME; conditions: 25 µM, 37 °C, 600 rpm, LC–MS, n = 2
Procedure: The conjugates were incubated in incomplete DMEM for 3 h (similarly to the internalisation studies) or in 2.5% FBS containing DMEM for 24 h (conditions for the MTT assay). […] No significant loss of L1 and L5 (<20%) or L6 (<30%) was observed after 3 h (see Supplementary Materials, Figure S17).
DMSO stock solutions of the conjugates (2.5 mM) were diluted in DMEM free from or containing 2.5% FBS, to a final concentration of 25 μM. The mixture was incubated and stirred at 37 °C, 600 rpm, and 30 µL aliquots were collected after 0 min, 0.5, 1, 2, 4, 8 and 24 h, in duplicates. Then, to each sample, 90 µL of 0.1% formic acid containing MeCN was added and the samples were frozen at −25 °C for ≥30 min to aid protein precipitation. Large FBS components were removed by centrifugation (15 min, 5000 g, 4 °C). Aliquots of 50 µL supernatant were diluted with an equal volume of ddH2O + 0.1% formic acid and analysed by LC–MS. Control measurements were performed in the same manner (25 μM bioconjugate in 100% ddH2O).

[2] = Stability in mouse plasma; format: in vitro ADME; conditions: 37 °C, HPLC-MS; for Time after which release of the toxic metabolite Dau=Aoa-Leu-OH starts: 10 µM, for L5 and L6 in a considerably low amount
Procedure: Due to their low IC50 values and internalisation on the tested cell lines, conjugates L1, L5 and L6 were chosen for investigation of their stability in mouse plasma, as potential candidates for in vivo studies. They were incubated at a concentration of 10 µM, with mouse plasma for 24 h at 37 °C. Samples were collected at 0 h, 30 min, 1 h, 2 h, 4 h, 8 h and 24 h and analysed by HPLC-MS. […] Furthermore, after 2 h, L1 starts to release the toxic metabolite Dau=Aoa-Leu-OH, whereas this happens only after 24 h for L5 and L6, in a considerably low amount (see Supplementary Materials, Figures S18–S20).
The conjugates were dissolved in ddH2O containing 10% DMSO (stock solution: 100 μM) and diluted with mouse plasma to a final concentration of 10 μM. The mixture was incubated and stirred at 37 °C, 600 rpm, and 30 µL aliquots were collected after 0 min, 0.5, 1, 2, 4, 8 and 24 h, in triplicates. Then, to each plasma sample, 90 µL of 0.1% formic acid containing MeCN was added, and the samples were frozen at −25 °C for ≥30 min to aid protein precipitation. Large plasma proteins were removed by centrifugation (15 min, 5000× g, 4 °C). Aliquots of 50 µL supernatant were diluted with an equal volume of ddH2O + 0.1% formic acid and analysed by LC–MS. Control measurements were performed in the same manner (10 μM bioconjugate in 100% ddH2O).

[3] = Metabolism in rat liver lysosomal homogenate; format: in vitro ADME; conditions: 0.2 M NaOAc pH 5.05, 37 °C, conjugate–lysosomal protein 1:10 (w/w), HPLC-MS, triplicates
Procedure: All the conjugates contain a cathepsin B cleavable spacer, either GFLG or LRRY, to allow the release of the toxic payload in lysosomes after receptor-mediated internalisation. We explored the metabolism of L1, L3, L5 and L6 in rat liver lysosomal homogenate to mimic this situation. The experiment was performed over 72 h, sampling at 0 min, 15 min, 30 min, 1 h, 2 h, 6 h, 24 h and 72 h in triplicates. All the (Dau=Aoa-LRRY)–BBN (7-14) conjugates have a similar degradation profile and they quickly release the active metabolite Dau=Aoa-Leu-OH, which can be detected after 15 min (Figure 3). […] Its signal cannot be detected anymore already after 1 h.
The rat liver lysosomal homogenate was prepared based on our previously published procedure, with small modifications: livers from two male Wistar rats (32.6 g and 41.2 g, respectively) were collected, minced with a knife and homogenised in two volumes of ice-cold 0.3 M sucrose, using a T25 Ultra Turrax homogenizer (∼100 mL). […] The protein concentration was determined by measuring the absorbance at 260 nm and 280 nm, and was calculated using the formula: Concentration (μg/μL) = 1.55 ∗ A280 − 0.76 ∗ A260; it was determined as 71.76 μg/μL. […]
The conjugates (2.5 μg/μL in DMSO, 5 μL) were diluted with 0.2 M NaOAc solution (pH 5.05, 495 μL) to 0.025 μg/μL. […] The composition of the samples was determined by HPLC-MS.

[4] = system: PC-3 human prostatic adenocarcinoma xenograft in NOD-SCID mice; experiment: In vivo tumour growth inhibition, subcutaneous PC-3 xenograft; design: species or system mouse; conditions: 10 mg/kg on Dau content i.p. every 5th day, n = 8
Procedure: The testing of the antitumour conjugates was carried out in a murine xenograft model. It was established by inoculating subcutaneously 100 µL of cell suspension of PC-3 prostate cancer cells with a concentration of 2 × 10^7 cells/mL.
Once the tumour volume reached 60 mm^3, mice were randomised and assigned to different groups for each treatment, respectively 0.9% saline as control, free daunorubicin, L5, and L6. Each group consisted of eight mice. Peptide–drug conjugates were injected intraperitoneally every 5th day, five times in total (daunorubicin dosage of 10 mg/kg for each treatment). In the case of free daunorubicin, two treatments were administered at the same time points as the first two treatments with conjugates, with a dosage of 1 mg/kg, the maximum tolerated dose (MTD). Weight and tumour size of mice were monitored throughout the whole experiment, two times per week. On day 33, mice were euthanized, and primary tumour, heart, lung, liver and spleen were harvested and stored in 4% formalin (Molar Chemicals, Halásztelek, Hungary). After 2–3 days of incubation in formalin, tissue samples were examined macroscopically. Organs and primary tumours from the different treatment groups were weighed and inspected under a stereomicroscope to see any occurrent changes in morphology compared to the controls.

healthy NOD-SCID mice = experiment: In vivo chronic toxicity study in healthy mice; design: species or system mouse; conditions: 20 mg/kg calculated on Dau content, every 5th day, four treatments, n = 3
Procedure: Based on the stability assay performed in murine plasma, we decided to investigate L5 and L6 in vivo. To determine the dosage for the tumour growth inhibition experiment, we performed a chronic toxicity study using healthy mice. PDCs were administered every 5th day in three different doses calculated on the Dau content: 5 mg/kg, 10 mg/kg, and 20 mg/kg (Figure 4A). […] When 10 mg/kg drug was applied, the fitness of mice was not affected more than that of mice that received 5 mg/kg.
The toxicity experiments were done in healthy NOD-SCID mice. Treatments were administered every 5th day. Three different concentrations were tested, 5 mg/kg, 10 mg/kg and 20 mg/kg, respectively. Each group consisted of three mice. Mouse weight was monitored five times per week.

Structure (SMILES) | Loss of conjugate after 3 h [1] [%] | Time after which release of the toxic metabolite Dau=Aoa-Leu-OH starts [2] [h] | remaining at 8 h, 10 μM ([2]; 600 rpm, n = 3, read-out: Detected fraction after 8 h) [%] | half-life at 10 μM ([2]; 600 rpm, n = 3, read-out: t1/2 in mouse plasma (converted)) [h] | Time after which the signal of the intact conjugate cannot be detected anymore [3] [h] | time to release of active metabolite Dau=Aoa-Leu-OH [min] | Toxicity during the tumour growth inhibition experiment [4] | remaining at 24 h, 10 μM ([2]; 600 rpm, n = 3, read-out: Intact conjugate after one day (24 h)) [%] | Decrease in mouse weight (healthy NOD-SCID mice)
CCCC[C@H](NC(=O)[C@H](CC(C)C)NC(=O)[C@H](Cc1c[nH]cn1)NC(=O)CNC(=O)[C@@H](NC(=O)[C@H](C)NC(=O)[C@H](Cc1c[nH]c2ccccc12)NC(=O)[C@H](CCC(N)=O)NC(=O)[C@H](Cc1ccc(O)cc1)NC(=O)[C@H](CCCNC(=N)N)NC(=O)[C@H](CCCNC(=N)N)NC(=O)[C@H](CC(C)C)NC(=O)CON=C(C)[C@]1(O)Cc2c(O)c3c(c(O)c2[C@@H](O[C@H]2C[C@H](N)[C@H](O)[C@H](C)O2)C1)C(=O)c1c(OC)cccc1C3=O)C(C)C)C(N)=O [L1, (Dau=Aoa)-LRRY-BBN(7-14)[Nle14]] ({Daunorubicin(13-NOCH2CO)}-LRRYQWAVGHL[Nle]-NH2) | < 20 | 2 | 20 | 3.8 | ≤ 1 | < 30 | – | – | –
COc1cccc2c1C(=O)c1c(O)c3c(c(O)c1C2=O)C[C@@](O)(C(C)=NOCC(=O)N[C@@H](CC(C)C)C(=O)N[C@@H](CCCNC(=N)N)C(=O)N[C@@H](CCCNC(=N)N)C(=O)N[C@@H](Cc1ccc(O)cc1)C(=O)N[C@H](Cc1ccccc1)C(=O)N[C@@H](CCC(N)=O)C(=O)N[C@@H](Cc1c[nH]c2ccccc12)C(=O)N[C@@H](C)C(=O)N[C@H](C(=O)NCC(=O)N[C@@H](Cc1c[nH]cn1)C(=O)N[C@@H](CC(C)C)[C@@H](O)CC(=O)N[C@@H](CC(C)C)C(N)=O)C(C)C)C[C@@H]3O[C@H]1C[C@H](N)[C@H](O)[C@H](C)O1 [L5, (Dau=Aoa)-LRRY-BBN[D-Phe6, Sta13, Leu14]] ({Daunorubicin(13-NOCH2CO)}-LRRY[dF]QWAVGH[Sta]L-NH2) | < 20 | 24 | – | – | – | < 30 | lower toxicity compared to free daunorubicin | > 80 | 10–15%
